Test results published in PMC2680336.

Target: Ect2 (UniProt Q9H8V3)
Assay: anti-myc IP, anti-FLAG blot
Conditions: reference: wild-type FLAG-HsCYK-4; sites S157

HsCYK-4 (MgcRacGAP) (from UniProt Q9H0H5) S157A
binding against the reference: weaker
